Experimental data from paper PMC5261807 (2017).
Non-standard residues stand in square brackets, D forms with d. Primed or numbered codes have the meaning given here. No end group written: not given here. Me2s″ = symmetric dimethylarginine (Rme2s); Arg(Me2a) = CN(C)C(=N)NCCC[C@H](N)C(=O)O; Lys(Me3) = C[N+](C)(C)CCCC[C@H](N)C(=O)O; Arg(Me2s) = CN=C(NC)NCCC[C@H](N)C(=O)O; pT = C[C@@H](OP(=O)(O)O)[C@H](N)C(=O)O; Lys(Me2) = CN(C)CCCC[C@H](N)C(=O)O; pS = N[C@@H](COP(=O)(O)O)C(=O)O; Lys(Me) = CNCCCC[C@H](N)C(=O)O

T1: Bdf1 bromodomain 1 (GST-tagged, WT) (Saccharomyces cerevisiae (strain ATCC …, UniProt P35817))
T1 chain: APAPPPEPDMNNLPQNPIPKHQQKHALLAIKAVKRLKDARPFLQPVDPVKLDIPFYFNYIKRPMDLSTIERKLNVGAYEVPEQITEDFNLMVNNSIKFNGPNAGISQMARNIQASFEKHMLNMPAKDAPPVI

T2: Bdf1 bromodomain 2 (GST-tagged, WT) (Saccharomyces cerevisiae (strain ATCC …, UniProt P35817))
T2 chain: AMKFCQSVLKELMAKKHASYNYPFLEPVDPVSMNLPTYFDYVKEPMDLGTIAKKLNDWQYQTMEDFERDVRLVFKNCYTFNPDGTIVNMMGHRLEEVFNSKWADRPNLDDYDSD


Target: T1, Bdf1 bromodomain 1 (GST-tagged, WT)
Assay: histone peptide array probed with recombinant GST-bromodomain, signal normalised to myc peptide control

Binder | binding score
A[Arg(Me2a)]T[Lys(Me2)]QTARKSTGGKAPRKQ | 0.00161
PRKQLATKAA[Arg(Me2s)]K(Ac)SAPATGG | 0.00843
PRKQLATKAAR(Me2s″)K[pS]APATGG | 0
ARTKQTARKSTGGKAPRKQ (A Rme2s T Kac Q T A R Kme3 S T G G K A P R K Q) | 0.00412
ARTKQTARKSTGGKAPRKQ (A R T Kme2 Q T A Rme2a Kme3 S T G G K A P R K Q) | 0
A[Arg(Me2a)][pT]K(Me)QTARKSTGGKAPRKQ | 0.00412
ARTKQTARKSTGGKAPRKQ (A Rme2a T Kme1 Q T A Rme2a Kme1 S T G G K A P R K Q) | 0
A[Arg(Me2a)]T[Lys(Me)]QTA[Arg(Me2s)][Lys(Me2)]STGGKAPRKQ | 0.00448
SGRGKGGKGLGKGGAKRHR (S G Rme2s G Kac G G Kac G L G Kac G G A K R H R) | 0.391
ARTKQTARKSTGGKAPRKQ (A R T K Q T A R Kme2 S T G G K A P R K Q) | 0.00269
SGRGKGGKGLGKGGAKRHR (pS G Rme2a G Kac G G Kac G L G K G G A K R H R) | 0.0927
ARTKQTARKSTGGKAPRKQ (A R T Kme1 Q T A Rme2a Kme2 S T G G K A P R K Q) | 0.00699
ARTKQTARKSTGGKAPRKQ (A R T Kac Q T A Rme2a Kme3 S T G G K A P R K Q) | 0.0328
ARTKQTARKSTGGKAPRKQ (A R T K Q T A R Kme3 pS T G G K A P R K Q) | 0
PDPAK(Ac)SAPAPKKGSKKAVT | 0.00502
[pS]GRGKQGGKARAK(Ac)AKSRSS | 0.00484
PDPAKSAPAPKKG[pS]K(Ac)KAVT | 0.0142
ARTKQTARKSTGGKAPRKQ (A Rme2s T Kme2 Q T A Rme2a Kac S T G G K A P R K Q) | 0.0108
A[Arg(Me2a)]T[Lys(Me2)]QTA[Arg(Me2s)][Lys(Me3)]STGGKAPRKQ | 0.0167
ARTKQTARKSTGGKAPRKQ (A R T Kme1 Q T A Rme2s Kme3 S T G G K A P R K Q) | 0
ARTKQTARKSTGGKAPRKQ (A Rme2a T Kme3 Q T A R Kac S T G G K A P R K Q) | 0.00628
PRKQLATKAA[Arg(Me2s)][Lys(Me3)]SAPATGG | 5.8e-17
A[Arg(Me2s)]T[Lys(Me3)]QTA[Arg(Me2a)][Lys(Me)]STGGKAPRKQ | 0
ARTKQTARKSTGGKAPRKQ (A R T Kme3 Q T A Rme2a Kme3 S T G G K A P R K Q) | 0.00538
ARTKQTARKSTGGKAPRKQ (A Rme2a T Kme1 Q T A Rme2a K S T G G K A P R K Q) | 0.00341
SGRGK(Ac)QGGK(Ac)ARAKAKSRSS | 0.0332

Binder | binding score
ARTKQTARKSTGGKAPRKQ (A Rme2s T Kme1 Q T A R Kme3 S T G G K A P R K Q) | 0
ARTKQTARKSTGGKAPRKQ (A Rme2s T Kme3 Q T A Rme2s K S T G G K A P R K Q) | 0.00861
ARTKQTARKSTGGKAPRKQ (A R T Kme1 Q T A Rme2a Kme3 S T G G K A P R K Q) | 0.00179
ARTKQTARKSTGGKAPRKQ (A Rme2s T Kme1 Q T A Rme2s Kme1 S T G G K A P R K Q) | 0.0134
PDPAK(Ac)SAPAPKK(Ac)G[pS]KKAVT | 0.00663
ARTKQTARKSTGGKAPRKQ (A Rme2s T Kme1 Q T A Rme2a Kac S T G G K A P R K Q) | 0.00628
ARTKQTARKSTGGKAPRKQ (A Rme2s T Kac Q T A Rme2s K S T G G K A P R K Q) | 0
ARTKQTARKSTGGKAPRKQ (A Rme2s pT Kme3 Q T A R K S T G G K A P R K Q) | 0.00538
PRKQLATKAA[Arg(Me2a)]K(Ac)SAPATGG | 0
ARTKQTARKSTGGKAPRKQ (A Rme2a T Kme2 Q T A Rme2s Kme1 S T G G K A P R K Q) | 0.0163
ARTKQTARKSTGGKAPRKQ (A R T K Q T A Rme2s K S T G G K A P R K Q) | 0.00305
ARTKQTARKSTGGKAPRKQ (A Rme2a T Kme3 Q T A Rme2a Kme2 S T G G K A P R K Q) | 0
ART[Lys(Me2)]QTA[Arg(Me2a)][Lys(Me)]STGGKAPRKQ | 0.000717
PRKQLATKAARK(Ac)[pS]APATGG | 0
A[Arg(Me2a)]TK(Ac)QTARK(Ac)STGGKAPRKQ | 0.0911
PRKQLATKAAR[Lys(Me)]SAPATGG | 0
PDPAKSAPAPKKGSK(Ac)KAVT | 0.00825
ARTKQTARKSTGGKAPRKQ (A R T K Q T A Rme2s Kme3 S pT G G K A P R K Q) | 0
ARTKQTARKSTGGKAPRKQ (A R T K Q T A R Kac pS T G G K A P R K Q) | 0
ARTKQTARKSTGGKAPRKQ (A Rme2a T Kac Q T A R Kme2 S T G G K A P R K Q) | 0.0255
ARTKQTA[Arg(Me2a)]K(Ac)S[pT]GGKAPRKQ | 0.0043
ARTKQTARKSTGGKAPRKQ (A R T Kme1 Q T A Rme2a Kme1 S T G G K A P R K Q) | 0.0154
ARTKQTARKSTGGKAPRKQ (A Rme2a T Kme3 Q T A Rme2a K S T G G K A P R K Q) | 0.0102
A[Arg(Me2a)]T[Lys(Me2)]QTA[Arg(Me2a)][Lys(Me2)]STGGKAPRKQ | 0.00126
ARTK(Ac)QTA[Arg(Me2s)][Lys(Me)]STGGKAPRKQ | 0.0242

Target: T2, Bdf1 bromodomain 2 (GST-tagged, WT)
Assay: as above

Binder | binding score
A[Arg(Me2a)]T[Lys(Me2)]QTARKSTGGKAPRKQ | 0
PRKQLATKAA[Arg(Me2s)]K(Ac)SAPATGG | 0.081
PRKQLATKAAR(Me2s″)K[pS]APATGG | 0
ARTKQTARKSTGGKAPRKQ (A Rme2s T Kac Q T A R Kme3 S T G G K A P R K Q) | 0
ARTKQTARKSTGGKAPRKQ (A R T Kme2 Q T A Rme2a Kme3 S T G G K A P R K Q) | 0
A[Arg(Me2a)][pT]K(Me)QTARKSTGGKAPRKQ | 0.00207
ARTKQTARKSTGGKAPRKQ (A Rme2a T Kme1 Q T A Rme2a Kme1 S T G G K A P R K Q) | 0
A[Arg(Me2a)]T[Lys(Me)]QTA[Arg(Me2s)][Lys(Me2)]STGGKAPRKQ | 0
SGRGKGGKGLGKGGAKRHR (S G Rme2s G Kac G G Kac G L G Kac G G A K R H R) | 0.605
ARTKQTARKSTGGKAPRKQ (A R T K Q T A R Kme2 S T G G K A P R K Q) | 0.00679
SGRGKGGKGLGKGGAKRHR (pS G Rme2a G Kac G G Kac G L G K G G A K R H R) | 0.206
ARTKQTARKSTGGKAPRKQ (A R T Kme1 Q T A Rme2a Kme2 S T G G K A P R K Q) | 0.00738
ARTKQTARKSTGGKAPRKQ (A R T Kac Q T A Rme2a Kme3 S T G G K A P R K Q) | 0
ARTKQTARKSTGGKAPRKQ (A R T K Q T A R Kme3 pS T G G K A P R K Q) | 0
PDPAK(Ac)SAPAPKKGSKKAVT | 0
[pS]GRGKQGGKARAK(Ac)AKSRSS | 0.0125
PDPAKSAPAPKKG[pS]K(Ac)KAVT | 0.142
ARTKQTARKSTGGKAPRKQ (A Rme2s T Kme2 Q T A Rme2a Kac S T G G K A P R K Q) | 0.0107
A[Arg(Me2a)]T[Lys(Me2)]QTA[Arg(Me2s)][Lys(Me3)]STGGKAPRKQ | 0
ARTKQTARKSTGGKAPRKQ (A R T Kme1 Q T A Rme2s Kme3 S T G G K A P R K Q) | 0
ARTKQTARKSTGGKAPRKQ (A Rme2a T Kme3 Q T A R Kac S T G G K A P R K Q) | 0.00758
PRKQLATKAA[Arg(Me2s)][Lys(Me3)]SAPATGG | 0
A[Arg(Me2s)]T[Lys(Me3)]QTA[Arg(Me2a)][Lys(Me)]STGGKAPRKQ | 0
ARTKQTARKSTGGKAPRKQ (A R T Kme3 Q T A Rme2a Kme3 S T G G K A P R K Q) | 0
ARTKQTARKSTGGKAPRKQ (A Rme2a T Kme1 Q T A Rme2a K S T G G K A P R K Q) | 0.00443
SGRGK(Ac)QGGK(Ac)ARAKAKSRSS | 0.141

Binder | binding score
ARTKQTARKSTGGKAPRKQ (A Rme2s T Kme1 Q T A R Kme3 S T G G K A P R K Q) | 0.000295
ARTKQTARKSTGGKAPRKQ (A Rme2s T Kme3 Q T A Rme2s K S T G G K A P R K Q) | 0
ARTKQTARKSTGGKAPRKQ (A R T Kme1 Q T A Rme2a Kme3 S T G G K A P R K Q) | 0
ARTKQTARKSTGGKAPRKQ (A Rme2s T Kme1 Q T A Rme2s Kme1 S T G G K A P R K Q) | 0.00443
PDPAK(Ac)SAPAPKK(Ac)G[pS]KKAVT | 0
ARTKQTARKSTGGKAPRKQ (A Rme2s T Kme1 Q T A Rme2a Kac S T G G K A P R K Q) | 0.00462
ARTKQTARKSTGGKAPRKQ (A Rme2s T Kac Q T A Rme2s K S T G G K A P R K Q) | 0.00876
ARTKQTARKSTGGKAPRKQ (A Rme2s pT Kme3 Q T A R K S T G G K A P R K Q) | 0.00895
PRKQLATKAA[Arg(Me2a)]K(Ac)SAPATGG | 0.0393
ARTKQTARKSTGGKAPRKQ (A Rme2a T Kme2 Q T A Rme2s Kme1 S T G G K A P R K Q) | 0
ARTKQTARKSTGGKAPRKQ (A R T K Q T A Rme2s K S T G G K A P R K Q) | 0
ARTKQTARKSTGGKAPRKQ (A Rme2a T Kme3 Q T A Rme2a Kme2 S T G G K A P R K Q) | 0
ART[Lys(Me2)]QTA[Arg(Me2a)][Lys(Me)]STGGKAPRKQ | 0
PRKQLATKAARK(Ac)[pS]APATGG | 0
A[Arg(Me2a)]TK(Ac)QTARK(Ac)STGGKAPRKQ | 0.0627
PRKQLATKAAR[Lys(Me)]SAPATGG | 0
PDPAKSAPAPKKGSK(Ac)KAVT | 0
ARTKQTARKSTGGKAPRKQ (A R T K Q T A Rme2s Kme3 S pT G G K A P R K Q) | 0.00561
ARTKQTARKSTGGKAPRKQ (A R T K Q T A R Kac pS T G G K A P R K Q) | 0
ARTKQTARKSTGGKAPRKQ (A Rme2a T Kac Q T A R Kme2 S T G G K A P R K Q) | 0.00915
ARTKQTA[Arg(Me2a)]K(Ac)S[pT]GGKAPRKQ | 0
ARTKQTARKSTGGKAPRKQ (A R T Kme1 Q T A Rme2a Kme1 S T G G K A P R K Q) | 0
ARTKQTARKSTGGKAPRKQ (A Rme2a T Kme3 Q T A Rme2a K S T G G K A P R K Q) | 0.00541
A[Arg(Me2a)]T[Lys(Me2)]QTA[Arg(Me2a)][Lys(Me2)]STGGKAPRKQ | 0
ARTK(Ac)QTA[Arg(Me2s)][Lys(Me)]STGGKAPRKQ | 0.00148
